# Measurements: the nanobody polyreactivity screen of Harvey et al. (2022)
# Test: yeast display, Sf9 membrane polyspecificity reagent, FACS + sequencing; frameworks hold sequencing errors
# Summary of the method: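 Genes from sorted yeast were amplified by colony PCR, read by MiSeq 2 × 250 sequencing and filtered on CDR length. These cells carried a synthetic nanobody library in Saccharomyces cerevisiae BJ5465 and were sorted by FACS into low and high (top ~1%) gates on anti-HA and streptavidin fluorescence. Polyreactivity is labelled according to the gate of origin.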
row,Sequence,polyreactivity (PSR sort gate)
1,QVQLVESGGGLVQAGGSLRLSCAASGFTFHYYAMGWYRQAPGKERELVAAISRGGGNTYYADSVKGRFTISRDNAKNTVYLQMNSLKPEDTAVYYCAADSKYRFSHGLDYWGQGTQVTVSS,high polyreactivity
2,QVQLVESGGGLVQAGGSLRLSCAASGFTFIPNAMGWYRQAPGKERELVADITWSGGTTYYADSVKGRFTISRDNAKNTVYFQMNSLKPEDTAVYYCNADYLFYAFDYWGQGTQVTVSS,low polyreactivity
3,QVQLVESGGGLVQAGGSLRLSCAASGFTFISNAMGWYRQAPGKERELVAAISSAGGRTYYADSVKGRFTISRATAKITVYLQMNTLKPEDTEVYYSNADRSLLYSRKIEYDSWGQGTQVTVSS,low polyreactivity
4,QVQLVESGGGLVQAGGSLRLSCAASGFTFIYYAMGWYRQAPGKERELVAAIRWSGGSTYYADSVKGRFTISRDNAKNTVYLQMNSLKPEDTAVYYCAASWYWFAQKRVYYWGQGTQVTVSS,high polyreactivity
5,QVQLVESGGGLVQAGGSLRLSCAASGFTFIYYAMGWYRQAPGKERELVAAITSGGNTYYADSVKGRFTISRDNAKNTVYFQMNSLKPEDTAVYYCNKVPHREWVGGYDYWGQGTQVTVSS,low polyreactivity
6,QVQLVESGGGLVQAGGSLRLSCAASGFTFKGNAMGWKRPAPGKERELVAGISRSGRTYYADSVKGRFTISRDNAKNTVYLQMNSLKPEDTAVYYCNVVYTYWRYYRWREYDYWGQGTQVTVSS,high polyreactivity
7,QVQLVESGGGLVQAGGSLRLSCAASGFTFKKNAMGWYRPAPGKERELVAAISRSGGITYYADSVKGRFTISRDNAKNTVYLQMNSLKPEDTAVSYCATQTYRTPAYPAYGYWGQGTQVTVSS,high polyreactivity
8,QVQLVESGGGLVQAGGSLRLSCAASGFTFKLYAMGWYRQAPGKERELVAAISSSGGRTYYADSVKGRFTISRDNAKYNVYLQMNSLKPEDTAVYYCNAVRTVNDYHYDYWGQGTQVTVSS,high polyreactivity
9,QVQLVESGGGLVQAGGSLRLSCAASGFTFKPYTMGWYRQAPGKERELVAAISRSGGSTYYADSVKGRFTISRDNAKNTVYLQMNSLKPEDTAVYYCAKRGNSWYLGGSWGQGTQVTVSS,high polyreactivity
10,QVQLVESGGGLVQAGGSLRLSCAASGFTFKRNGMGWYRQAPGKERELVAAISSSGGNTYYADSVKGRFTISRDNAKNTVYLQMNSLKPEDTAVYDCAAASRYFDRDYWGQGTQVTVSS,high polyreactivity
11,QVQLVESGGGLVQAGGSLRLSCAASGFTFKRYAMGWYRQAPGKERELVAAISYGGSRTYYADSVKGRFTISRDNAKNTVYLQMNSLKPEDTAVYYCNFRRRTWHYITSMDYWGQGTQVTVSS,high polyreactivity
12,QVQLVESGGGLVQAGGSLRLSCAASGFTFKRYAMGWYRQARGKERELVAAISWSGSSTYYADSVKGRFTISRDNAKNTVYLQMNSLKPEDTAVYYCAARSFRPAYDYWGQGTQVTVSS,high polyreactivity
13,QVQLVESGGGLVQAGGSLRLSCAASGFTFKSYAMGWYRPAPGKERELVAGITRTGVSTYYADSVKGRFTISRDNAKNTVYLLMNSLKPEDTAVYYCAAGIRHIYQSYAFYKFDYWGQGTQVTVSS,high polyreactivity
14,QVQLVESGGGLVQAGGSLRLSCAASGFTFKVYAMGWYRQAPGKERELVAAISKSGGSTYYADSVKGRFTISRDNAMNTVYLQMNSLKPEDTAVDYCATGGYAYVYPYDYWGQGTQVTVSS,low polyreactivity
15,QVQLVESGGGLVQAGGSLRLSCAASGFTFKWYTMGWYRQAPGKERELVAGISRRGGSTYYADSVKGRFTISRDNAKNTFYLQMNSLKPEDTAVYYCAADSKLTKFYYWGQGTQVTVSS,high polyreactivity
16,QVQLVESGGGLVQAGGSLRLSCAASGFTFKWYTMGWYRQAPGKERELVAGISRRGGSTYYADSVKGRFTISRDNAKNTVYLQMNSLKPEDTAVYYCAAEFPTVYFPWSEMDYWGQGTQVTVSS,high polyreactivity

row,Sequence,polyreactivity (PSR sort gate)
1,QVQLVESGGGLVQAGGSLRLSCAASGFTFKYNAMGWYRQAPGKERELVASISSGSTNYADSVKGRFTISRDNAKNTVYLQMNSLKPEDTAVYYCSASVSRGKRFRYGYVFKMDYWGQGTQVTVSS,low polyreactivity
2,QVQLVESGGGLVQAGGSLRLSCAASGFTFKYYALGWYRQAPGKERELVAAIRGSGAGTYYADSVKGRFTISRDNSKNTVYLQMNSLKPEDTAVYYCNNRWTYKWDDYWGQGTQVTVSS,high polyreactivity
3,QVQLVESGGGLVQAGGSLRLSCAASGFTFKYYAMGWYRQAPGKERELVAAITWSGGSTYYADSVKGRFTISRDNAKNTVYLQMNSLKPEDTAVYYCNAKVYQISRYGYWGQGTQVTVSS,high polyreactivity
4,QVQLVESGGGLVQAGGSLRLSCAASGFTFLAYSMGWYRQAPGKERELVAAIRWSGRRTYYADSVKGRFTISRDNAKNTVYLQMNSLKPEDTAVYYCAADTRRVREYNYWGQGTQVTVSS,low polyreactivity
5,QVQLVESGGGLVQAGGSLRLSCAASGFTFLNYAMGWYRQAPGKERELVAAITRSGGSTYYADSVKGRFTISRDTAKNTVYLQMNSLKPEDTAVYYCAIGYYSPNYYYWGQGTQVTVSS,high polyreactivity
6,QVQLVESGGGLVQAGGSLRLSCAASGFTFLRYAMGWYRPAPGKERELVAVITYGGGSTYYADSVKGRFTISRDNAKNTVYLQMNSLKPEDTAVYYCALYPRRAGGDYWGQGTQVTVSS,high polyreactivity
7,QVQLVESGGGLVQAGGSLRLSCAASGFTFLWYGMGWYRQAPGKERELVAAISSSGGSTYYADSVKGRFTISRDNAKNTVFLQMNSLKPEDTAVYYCAVAVSNQYVRYGYWGQGTQVTVSS,low polyreactivity
8,QVQLVESGGGLVQAGGSLRLSCAASGFTFLYYDMGWYRQAPGKERELVAAITSSGTSTYYADSVKGRFTISRDNAKNTVYLQMNSLKPEDTAVYYCAVLYTYAGRHRYGYWGQGTQVTVSS,high polyreactivity
9,QVQLVESGGGLVQAGGSLRLSCAASGFTFNANAMGWYRQAPGKERELVAVITRSGGRTYYADSVKGRFTISRDNAKNTVYLQMNSLKPEDTEVYYCAKECPSRVYQGTDSASDYWGQGTQVTVSS,high polyreactivity
10,QVQLVESGGGLVQAGGSLRLSCAASGFTFNDNDMGWYRQAPGKEWELVAAITYGGSTYYADSVKGRFTISRENAKNTVYLQMNSLKPEDTAVYYCNVEFFFWPYEYGYWGQGTQVNVSS,low polyreactivity
11,QVQLVESGGGLVQAGGSLRLSCAASGFTFNDYAMGWYRQAPGKERELVAAIDWSGGRTYYADSVKGRFTISRDNAKNTVYLQMNSLKPEDTAVYYCAAVLYSRMYWYRLDYWGQGTQVTVSS,low polyreactivity
12,QVQLVESGGGLVQAGGSLRLSCAASGFTFNFYVMGWYRQAPGKERELVAAITSNGGSTYYADSVKGRFTISRDNAKNTVYLQMNSLKPEDTAVYYCAADQYPTWSYLPFDYWGQGTQVTVSS,high polyreactivity
13,QVQLVESGGGLVQAGGSLRLSCAASGFTFNGYAMGWYRQAPGKERELVAGITRRGGITYYADSVKGRFTISRDNAKNTVYLQMNSLNPEDTAVYYCNAYPRYIIPSIVNGYNYWGQGTQVTVSS,high polyreactivity
14,QVQLVESGGGLVQAGGSLRLSCAASGFTFNGYARGWYRQAPGKDRELVATMTNGGSTYYADSVKGRFTISRDNAKNTVYLQMNSLKPEDTAVYYCAAESEQATPGYLAPLFDYWGQGTQVTVSS,low polyreactivity
15,QVQLVESGGGLVQAGGSLRLSCAASGFTFNRNAMGWYRQAPGKERELVAAISWSGGSTYYADSVKGRFTLSRDNAKNTVYLQMNSLKPEETAVYYCAKGYRRVYGPFYYWGQGTQVTVSS,low polyreactivity
16,QVQLVESGGGLVQAGGSLRLSCAASGFTFNRYAMGWYRQAPGKERELVAAISWSGTSTYYADSVKGRFTISRDNAKNTVYLQMNSLKPEDTAVYYCATRQTHSYDYWGQGTQVTVSS,high polyreactivity
